The values that follow come from patent US20090010941A1, “Methods for treating HIV” (priority 2007, published 2009).

The subject of data set [1] is TRAIL-R1 expression on HIV-1 infected macrophages. Format: cell-based, human.
The subject of data set [2] is Bcl-2, Mcl-1, BclXL, BimL, Bmf and cFLIP. The experiment in a line: Western blotting of pro- and anti-apoptotic proteins in the TRAIL signaling pathway. The conditions noted are these: HIV-1 LAI WT infected macrophages, 2 μM Imatinib 16 hours. Format: cell-based, human. Here is the method: FIG. 11 provides a set of six protein immunoblot images. […] Protein levels of Bcl-2, Mcl-1, BClxL, BimL, Bmf and cFLIP were determined by Western blotting.
It has been shown that envelope induces over-expression of anti-apoptotic genes, Mcl-1, Bfl-1, cIAP-1, cIAP-2 and XIAP, that function in preventing mitochondrial and caspase-mediated apoptosis by TRAIL (Salvesen and Duckett, 2002; Zhang & Fang, 2005; Han et al., 2006).
A general note: Immunoblotting shows a protein as a band on a membrane.

The conditions of data set [3]: in vivo; cited from earlier work.
The test system of data set [4] is HIV-1 infected macrophages. Put plainly: Cell Death ELISA for histone-associated DNA fragmentation after Imatinib alone. Format: cell-based, human. The note with it: Imatinib alone 24 or 120 hours, no exogenous TRAIL, five days after infection. On the procedure: ELISA for Caspase-3 cleavage (to active form) was obtained from Cell Signaling Technologies (Beverley Mass.). Briefly, 1.4×10^6 macrophages infected with WT and envelope-minus viruses were lysed according to the supplier's protocol, 1 hour after the addition of soluble recombinant Trail (100 ng ml-1). Protein content was determined by Bradford Assay (Bio-Rad, Hercules Calif.) and 220 μg of protein in 200 μl from each culture was assayed. ELISA for supernatant release of histone associated DNA fragments released after induced cell death (Roche, Nutley N.J.) was used to measure macrophage longevity. […] In some experiments an MTT assay (Sigma, St. Louis Mo.) was used to measure cell viability. Fluorescent detection of active caspases was performed by pre-treating cells with red-VAD-FMK and flow cytometry according to the manufacturer's protocol (EMD biosciences). For the measurement of apoptosis by Annexin V and propidium iodide staining in flow cytometry reagents were obtained from BioVision (Mountain View Calif.) and used according to the supplier's protocol.

For another data set, the system named is HIV-1 LAI. Put plainly: Virus production with increasing concentrations of TRAIL (reverse transcriptase). The conditions noted are these: 16 hours. Format: cell-based, human. Here is the method: (§1) FIG. 5. provides three graphs showing that cell viability and virus production in the presence of TRAIL requires an intact envelope gene and is augmented by M-CSF. Macrophage viability and virus production in the presence of increasing concentrations of TRAIL is shown in FIG. 5A and FIG. 5B, respectively. Four days after infection with pseudotyped HIV-1 LAI WT or Δenv viruses, macrophages were incubated with increasing concentrations of soluble TRAIL and cell viability (FIG. 5A) and virus production (FIG. 5B) determined after 16 hours by MTT assay and reverse transcriptase production, respectively. Activated CD8+ T cells suppress viral replication in macrophages via TRAIL (FIG. 5C). Macrophages were infected with pseudotyped wild-type or envelope-minus HIV-1 LAI variants and monitored for virus production in a 24 hour period after incubation with Anti-CD3/CD28 stimulated autologous CD8+ TRAIL+T lymphocytes for 4 hours. Macrophages were pre-treated for 16 hours with M-CSF neutralizing antibody or isotype control and T cells were preincubated with recombinant TRAIL-R1 or control receptor (5 μg·ml-1) for 1 hour.
The differential sensitivity of wild type and envelope minus HIV-1 infected macrophages to TRAIL-mediated cell killing correlated with the concentration of TRAIL required to impact cell viability and virus production. […]

In data set [5] the test system is HIV-1 infected macrophages. Put plainly: TRAIL-mediated apoptosis by ELISA for active (cleaved) Caspase 3. It counts as cell-based, human. The conditions noted are these: HIV-1 WT infected macrophages, Day 2. On the procedure:
(§2) Macrophages were infected with pseudotyped wild-type or envelope-minus HIV-1 LAI variants and monitored for virus production (FIG. 4A). At 8 days post infection, cultures were incubated with soluble TRAIL (100 ng·ml-1) and apoptosis determined by ELISA for active (cleaved) Caspase 3. […] Macrophage cultures, equally infected with pseudotyped HIV-1 LAI WT or Δenv viruses or mock infected, were examined by phase contrast microscopy after incubation with 100 ng/ml TRAIL (1 hour treatment with TRAIL followed by 5 hours incubation after removal of TRAIL). […] Eight days after infection with pseudotyped HIV-1 LAI WT or Δenv viruses, macrophages were incubated with soluble TRAIL (100 ng·ml-1) and percentage of viable cells remaining extrapolated from the level of cell death determined from ELISA. Macrophage half-life was calculated from the linear regression slope and expressed in hours+/−SD.
Relationship of apoptosis by TRAIL, M-CSF release and TRAIL-R1 expression in macrophages infected with pseudotyped wild type or envelope minus HIV-1 HSA viruses. In FIG. 6A, M-CSF release as a function of time was determined by ELISA. In FIG. 6B, TRAIL-R1 expression as a function of time was measured by flow cytometry. In FIG. 6C, TRAIL-mediated apoptosis in macrophages was analyzed by ELISA for active (cleaved) Caspase 3 in parallel cultures during the infection (Error bars, SD). […]
Background: In an ELISA, binding on a coated surface is turned into a signal by an enzyme label.

Data set [6] relates to HIV-1 LAI infected macrophages. The experiment in a line: Macrophage viability with increasing concentrations of TRAIL (MTT assay). Format: cell-based, human. The conditions noted are these: 16 hours. On the procedure:
as §1, with “hour. […]” for “hour.”
ELISA for Caspase-3 cleavage (to active form) was obtained from Cell Signaling Technologies (Beverley Mass.). […] Protein content was determined by Bradford Assay (Bio-Rad, Hercules Calif.) and 220 μg of protein in 200 μl from each culture was assayed. […]
In general terms: Tetrazolium assays rely on reduction of a dye to a coloured formazan, in cell work by metabolically active cells.

The test system of data set [7] is HIV-1 infected macrophages. Put plainly: Apoptosis by Annexin V and propidium iodide staining and flow cytometry. The conditions noted are these: TRAIL exposure without Imatinib treatment. It counts as cell-based, human.
Data set [8] deals with HIV-1 infected macrophages. The experiment in a line: Macrophage half-life in the presence of TRAIL (cell death ELISA). The note with it: soluble TRAIL 100 ng·ml-1. It counts as cell-based, human. Here is the method:
as §2
Macrophages are a long-lived reservoir of HIV in vivo and a source of viral rebound (reviewed in Stevenson, 2003). The evasion of apoptosis in other human viral infections contributes to viral persistence and enables the infected cell to survive in the face of a hostile microenvironment (Raftery et al., 2001; Secchiero et al., 2001; Tollefson et al. 1998; Tollefson et al. 2001). Therefore we determined the half-life of HIV-1 infected macrophages in the presence of a concentration of TRAIL capable of inducing apoptosis. […] Thus resistance to TRAIL can potentially provide a significant advantage to macrophages infected by HIV-1.
ELISA for Caspase-3 cleavage (to active form) was obtained from Cell Signaling Technologies (Beverley Mass.). Briefly, 1.4×10^6 macrophages infected with WT and envelope-minus viruses were lysed according to the supplier's protocol, 1 hour after the addition of soluble recombinant Trail (100 ng ml-1). Protein content was determined by Bradford Assay (Bio-Rad, Hercules Calif.) and 220 μg of protein in 200 μl from each culture was assayed. […]

The mark [9] stands for this setting: macrophages infected with pseudotyped HIV-1 LAI Δenv.
Where [10] appears, read: macrophages infected with pseudotyped wild type HIV-1 LAI.

“Also recorded” adds a separate entry of the source. Counter-ions that a name gives are not always drawn.

For `Cc1ccc(NC(=O)c2ccc(CN3CCN(C)CC3)cc2)cc1Nc1nccc(-c2cccnc2)n1` [Imatinib, Imatinib mesylate], in data set [1] (uninfected macrophages, also those in cultures of infected cells, Imatinib 16 hours), the “TRAIL-R1 expression on uninfected macrophages” value is on record as “did not promote TRAIL-R1 expression”. For the same molecule, the “expression of pro- and anti-apoptotic proteins” value in [2] was “cause a shift in the expression of the proteins in favor of cellular apoptosis”. Also, the “bioavailability to the brain” value in data set [3] is on record as “poor bioavailability to the brain”. Further, the “apoptosis (histone-associated DNA fragmentation) of wild-type-infected macrophages” value in [4] is “results in apoptosis of wild-type-infected macrophages; also recorded: removed the requirement for exogenous TRAIL”.

B1: exogenous M-CSF: recombinant macrophage colony stimulating factor added to macrophage cultures (protein, UniProt P09603 33-554, looked up)
Macrophage colony-stimulating …: EEVSEYCSHMIGSGHLQSLQRLIDSQMETSCQITFEFVDQEQLKDPVCYLKKAFLLVQDIMEDTMRFRDNTPNAIAIVQLQELSLRLKSCFTKDYEEHDKACVRTFYETPLQLLEKVKNVFNETKNLLDKDWNIFSKNCNNSFAECSSQDVVTKPDCNCLYPKAIPSSDPASVSPHQPLAPSMAPVAGLTWEDSEGTEGSSLLPGEQPLHTVDPGSAKQRPPRSTCQSFEPPETPVVKDSTIGGSPQPRPSVGAFNPGMEDILDSAMGTNWVPEEASGEASEIPVPQGTELSPSRPGGGSMQTEPARPSNFLSASSPLPASAKGQQPADVTGTALPRVGPVRPTGQDWNHTPQKTDHPSALLRDPPEPGSPRISSLRPQGLSNPSTLSAQPQLSRSHSSGSVLPLGELEGRRSTRDRRSPAEPEGGPASEGAARPLPRFNSVPLTDTGHERQSEGSFSPQLQESVFHLLVPSVILVLLAVGGLLFYRWRRRSHQEPQRADSPLEQPEGSPLTQDDRQVELPV
In the case of B1, in data set [1] (macrophages infected with an envelope defective virus, exogenous M-CSF 16 hours), the TRAIL-R1 expression result is reported as “down-regulated TRAIL-R1”.

B2: TRAIL: soluble human recombinant TRAIL (TNF-related apoptosis-inducing ligand) obtained from Axxora LLC (protein, UniProt P50591 39-281, looked up)
extracellular domain: TNELKQMQDKYSKSGIACFLKEDDSYWDPNDEESMNSPCWQVKWQLRQLVRKMILRTSEETISTVQEKQQNISPLVRERGPQRVAAHITGTRGRSNTLSSPNSKNEKALGRKINSWESSRSGHSFLSNLHLRNGELVIHEKGFYYIYSQTYFRFQEEIKENTKNDKQMVQYIYKYTSYPDPILLMKSARNSCWSKDAEYGLYSIYQGGIFELKENDRIFVSVTNEHLIDMDHEASFFGAFLVG
modifications: extracellular domain
notes: soluble human recombinant TRAIL (TNF-related apoptosis-inducing ligand) obtained from Axxora LLC
Take B2: the “TRAIL concentration effecting ~50% reduction in virus output” value in the data set with HIV-1 LAI (setting [9]) was found to be 3 ng/mL. Also, in the data set with HIV-1 LAI (setting [10]), the “TRAIL concentration required for ~50% reduction in virus output” value is more than 50 ng/mL. Further, in data set [5], the “TRAIL-induced active caspase 3 elevation” value turned out to be 3 fold. Also, in data set [6] (setting [9]), the “TRAIL concentration effecting ~50% reduction in cell viability” value turned out to be 3 ng/mL. For the same molecule, the “TRAIL concentration required for ~50% reduction in viability” value in data set [6] (setting [10]) was more than 30 ng/mL. Further, the “apoptosis of infected macrophages” value in data set [7] was 3.9%. Besides, the results for the “macrophage half-life in the presence of TRAIL” value in data set [8] (HIV-1 Δenv infected macrophages), in data set [8] (mock infected cultures) and in data set [8] (wild type infected cultures) were “around 36 hours”, 81 h and 110 h, respectively.
